This test concerns the target human GHR stably expressed in human 293 cells (human) (UniProt P10912). In words: cell-based or functional assay.

Data on one substance can be found in patent US20100197582A1.

UniProt P10912, sequence (P10912 19-638): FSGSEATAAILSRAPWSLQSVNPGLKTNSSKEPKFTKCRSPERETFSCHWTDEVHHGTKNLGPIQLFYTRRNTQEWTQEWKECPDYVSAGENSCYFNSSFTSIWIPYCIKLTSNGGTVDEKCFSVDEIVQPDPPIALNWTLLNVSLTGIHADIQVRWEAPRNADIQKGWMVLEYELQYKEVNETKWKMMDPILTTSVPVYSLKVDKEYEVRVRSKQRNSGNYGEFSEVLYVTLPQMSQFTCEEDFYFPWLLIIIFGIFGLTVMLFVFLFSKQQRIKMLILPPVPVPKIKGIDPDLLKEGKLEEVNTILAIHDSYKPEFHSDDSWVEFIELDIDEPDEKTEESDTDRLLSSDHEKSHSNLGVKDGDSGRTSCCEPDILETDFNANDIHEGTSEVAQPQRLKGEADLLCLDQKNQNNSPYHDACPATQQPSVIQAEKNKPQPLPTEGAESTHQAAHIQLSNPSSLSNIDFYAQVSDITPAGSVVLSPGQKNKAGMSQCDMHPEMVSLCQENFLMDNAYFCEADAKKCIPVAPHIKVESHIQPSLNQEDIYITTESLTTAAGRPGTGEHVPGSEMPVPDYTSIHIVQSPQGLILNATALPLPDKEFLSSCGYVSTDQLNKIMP

Substance “LR-fusion (human GH linked to the A & B domains of the GHR extracellular domain, exGHR1-238, via a (Gly4Ser)4 linker) (from UniProt P01241 27-217; P10912 1-238)” yielded a bioactivity in GH-specific luciferase reporter assay (Stat 5 luciferase reporter), relative to GH of 10% and a concentration giving maximal response, Stat 5 luciferase-reporter assay of 50 to 250 nM.
